The results in this text go back to patent US20050287518A1 (Scripps Research, published 2005).

In test [1] the target is T1, Recombinant 6His-tagged RhoA pre-equilibrated with GTPγS (UniProt P61586 1-193, limits assumed).
T1 construct: also called RhoA-GTPγS; not shown: 6His tag
Nature of the test: fluorescence of the solvatochromic dye on mero-CBD, in vitro. On the procedure:
(§1) Analyses of the solvatochromic activation indicator—A solution of mero-CBD (300 nM) in assay buffer was mixed 1:1 (v/v) with solutions of cdc42 (concentration as indicated), pre-equilibrated with 10 mM GDP or GTPγS as described in Knaus, U. G., Heyworth, P. G., Kinsella, B. T., Cumutte, J. T., and Bokoch, G. M. (1992) J. Biol. Chem. 267, 23575-23582. Emission wavelength of 630 nm and excitation wavelength of 600 nm were used to acquire excitation and emission spectra, respectively. For nucleotide dependence, cdc42 (500 nM) was pre-incubated with varying concentrations of GTPγS (1 to 500 nM). Rac1 and RhoA GTPases were pre-equilibrated with GTP […]S in the same manner.
(§2) Fluorescence increase as a measure of CBD-cdc42 interaction—The functionality and specificity of mero-CBD was characterized by measuring fluorescence in the presence of saturating amounts of cdc42-GDP or cdc42-GTPγS. […] Negligible increase (<5%) was also observed in the presence of activated Rac1. No effect on the mero-CBD fluorescence was observed when RhoA-GTPγS was present. Furthermore, even in the presence of excess of activated Rac1 and RhoA, GDP- and GTPγS-bound forms of cdc42 were easily distinguished by CBD-A4C fluorescence (data not shown).

The target in test [2] is T2, Recombinant 6His-tagged cdc42 bound to GTPγS (UniProt P60953 1-191, limits assumed).
T2 construct: Pre-equilibrated with GTPγS; also called cdc42-GTPγS; not shown: 6His tag
Nature of the test: fluorescence of mero-CBD with saturating amounts of cdc42-GTPγS. How it is done: as §1, §2

Test [3] addresses T2, Recombinant 6His-tagged cdc42 bound to …. The experiment in a line: fluorescence of the solvatochromic dye on CBD, comparison of three cysteine mutants (FIG. 15). On the procedure: as §1

T2 sequence (P60953 whole entry): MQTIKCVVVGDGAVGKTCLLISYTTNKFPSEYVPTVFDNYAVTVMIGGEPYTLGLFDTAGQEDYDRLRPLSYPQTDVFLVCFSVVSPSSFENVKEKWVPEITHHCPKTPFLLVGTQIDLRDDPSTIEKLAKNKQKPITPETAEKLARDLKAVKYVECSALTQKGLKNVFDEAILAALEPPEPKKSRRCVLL
T1 sequence (P61586 whole entry): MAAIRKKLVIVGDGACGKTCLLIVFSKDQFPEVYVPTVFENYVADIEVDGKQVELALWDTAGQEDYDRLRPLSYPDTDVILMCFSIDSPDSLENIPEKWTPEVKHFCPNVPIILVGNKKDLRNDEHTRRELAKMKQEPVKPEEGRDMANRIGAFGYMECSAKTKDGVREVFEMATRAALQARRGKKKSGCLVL

B1: mero-CBD-F271C conjugate (Cdc42-binding fragment of human WASP, amino acids 201 to 321, F271C, C-terminal 6His fusion, labeled with the merocyanine dye of FIG. … (other)
chain: DIQNPDITSSRYRGLPAPGPSPADKKRSGKKKISKADIGAPSGFKHVSHVGWDPQNGFDVNNLDPDLRSLCSRAGISEAQLTDAETSKLIYDFIEDQGGLEAVRQEMRRQEPLPPPPPPSHHHHHH
modifications: chain 1 pos 71 (WASP 271): Cys carrying the thiol-reactive merocyanine dye of FIG. 11, written C
notes: Dye-to-protein ratio 0.8 to 1.2 for single-dye conjugates; also called CBD biosensor; CBD-mero
Take B1: the binding result in test [1] is reported as “no binding”. Besides, the “fold increase in excitation and emission maxima” value in test [2] was ~3.5 fold. In addition, the “fold fluorescence change on binding” value in test [3] is ~3.5 fold.
